Test system: Cys-Srctide (Biotin-ZZICGEFRRR)
Assay: cross-linking

c-Src tyrosine kinase (recombinant)
percent conversion to crosslinked product: 40% conversion in 25 minutes
